# Measurements published in the DeepSol protein solubility set.
# Assay: soluble on expression in E. coli; label from the status in PepcDB or PDB records
row,Sequence,soluble on expression in E. coli
1,MDMPHSTTHDASPAPCQRCGMAGATCCTIDPTDASLCFPVSRSEWERIVDHCDKRGGFATEPNTRPFVDNLIRLFPGEAREIERLFPPHGFHLRLAVDAKGNCAFLGPEGCTLPREVRPWYCLVFPFWLQGGRIAIFTPSGCVAVREGRTVPGCLALMNFTARDVRRLAGRLRLAWGLPPLDENGETLLEHHHHHH,not soluble
2,MDMPKPPFVIYKGKVEEEFARLHKDGKSLLKAESKFVQFLGLQELTDRACDHVELANPTKNTIIFNIRTPTSPCFFVKPHVGMIDPGGKATLYFTFKGRCHRVPSDYCWIYSIYQLVVDEKTTAFIKEDEFSSQNLRSAWIKHGRKQVNNILHLASSFKAGKPKFECRDGHRKFLERKIYLNDLGDVENSGKSKTENTTDITPANMKKGKLNKAASSDTMDDLPKTAD,not soluble
3,MDNGHIEETNNVEIDPATGGAVMSFSYASDFPTLPDAAPASAPTAKQTHVWSRPTLSKSEVNITFRLASDERSNKVKSFGSTSEESKKAQAIATATKTRIELSESKDGELTVVVKGERAKAEEARARIIRDLQTQASREIDIPKDHHGRLIGKEGALLRNLEAETNCRIQIPNRDGPSSKITITGPREGIQRAAAHILAVSEREAKLATEHIVCPKNLVAFVRGPKNETYDRLTQNNGVKINIPPPHVTNEVISVTGEKDGVLRVAAEIRQIIESKKNVSSIQVAVARTQHRYIVGQSRSGIHDVLQKTGCVVEVPAEDSGSDQVTLIGNAQDLAKALALVIERASSVVTQSISAPNWLHKHLIGPKGATLTALVPNRNNVQIEFDNSNQIFLEGSPEEVKLAFEPLSKEVARLQMELAIEKVKVHPTLHRHVIGRGGSLISKIKDQHGVQITIPNEETNSDEIVVEGKKEGVKKAVTEIRAIVTKIENEKSRDIIIPQRLHKLIIGSKGSGVQVIRDSHPNVSVVFPDAKSKSDVVNIRGDKTEVDAVYKKLTALSKEYAENNYQQTVAIFKEFLKHIVGKGGASIRKLRDETETRIDLPESGSDDGKITVTGKQANVEKAVAQLNKIQEELANVAEESIEIPQKVQSRFFGNGRRLISDIEDECGGVHIRFPSEKSESTKVTIRGPAGDVAKAVGLLSALAKDKEENYVEDTVKAKPEFHRFLIGKGGSKIAKLRDTLNVRVMFPKEGDAEKETIHLLGKKEDVPKAKAALEDAIKQLSETVDIKITVDPKYYKNFLARGAALVKEIQEQNGGVVISFPKNGTDSSEVSIRGSKQCVEAAKNRIEDVVEDYEKQITDNVTIPAQFHRGLLAGRGAKIHELQSKYNVSIRFPNNREEGSEGSDQVTVSGRDTKVEEAKEALLAMVPISKVIQLPVDMHRSIIGRGGETVRKLMQDYDVNISIPKDNSSEDITVTGQTENVDQALEALRGKLGEYEAQAEDRKLKQWSMSINVPTDYHQKIIGQRGATITALKEKYGVIINVPREDGNETITIQGYEEKANECAAAIEEMISELRSMFTQEISLDARYHPRLIGQRGKNLKKVMEDYRVEIRLPRQGAEDPNLVVVAGKDENDVYDCIDHLRAEEEEFLLDNVERTQYMSPRQQESNNTRHHQQPTSVQMKGAPWQLDLGSSEQFPDMGPAAGSSAAVGGAGAWGSSRRW,not soluble
4,MDNHGILESLLFTAGDEGLDEKQLLEILDMSKDQLVELIENYSSHGLMIQRFGMTYVLTTKKEAATYIEQLIEQKSQMKLSQAAMEVLSIIAYNQPLSRSDIELIRSINSDGAVKTLIAKGLVEAKVVNEQRSQQLITTDLFLNVFGISNIEDLPTTEEDDEEMDAFFSNLVNQKGENND,not soluble
5,MDPFKKPVRMLPIKGAPISRPISVFTFDVFNPPDDSDGSSTPDSVFEAETSPARTPPTPALILPYDYVSSEDSDDEAQEHADNRDTNDQVSESSTSEDSDSESESSCDDTQQTFVDDESTSSSGEEDRDDPFESNDQGAQGGSTSESEDDLPAILRAARETQSDSSSDSSGNSHKKRRVQEEESSRILKTPAPISGNGKYNWPWLD,soluble
6,MDPLDDLLTQLEGVEEEELKPVNRAPRLLNMEEACENQGSSEKPSDSSSKNRYEDDDSDDEELYVKKRELTEQGALLKRHLEKNSSTSGPKATDAWKTNKKSVLTGLTKPSTDTVTVGIVRFDKFQISIRNPKISATSFGAFTAGMKLEKLSNLKPTSNFKEAWCTIGVIVEKGFKKKSANGNDFLIWKLHDLKDCQTQPVKLLMFGDAIKDHWEIKLGSVIALISAQIADDSTASGAKKTVSATLKVAKSNNIVEIGQSAHFGTCKGIRQQDGQRCSNFVNSSLSEFCVFHVMSAARKLSAKRGVFNAVTCGPNVGGLSFNKKPGTPRPPISSRPGISGSGLATSSGSPMLRDTMRPADSFTLTTPTSGLKKITKEEEKSSLNDLLSQRKNTFAARQMLKLKEKKDEKLAESVEEMIEFLGTTGGEEKPSVHSSFGEFLAADTRREKAATVDLRASSATSGTSASSPGGSKLWTMSLANKKAAPLGHKDAQEHAARLRAIAILKAKRKEAEMEKLTGGGGGVKRKASGTPTAPEPEAKKPRSQKMDEIRAMLARKSTHHKEAEKAEHDMLQRHLTGMEEREKVETFTTTCVEVKNVKVVTCNQCKYTSQFASSECIKKEHKLIKHTADKRFFKCTGCKKRTVCFEMMPVKHCAHCNENKWERVAMKDERKVVLDTENLLLRGEERPFVGS,not soluble
7,MDQEIKSLELNITQLSAITGAHRQTIASRLKGVKTSGGNGSNLKIYRLVDILTAMMTMPAVTGENDPNKMKPSDRRAWFQSEMTRIELEKEMRTLIPASEVLSVYAVMAKTVVKTLEILPDLLERDAALPPDALEMTQKIIDQLREDLASMTYQACADAINGDDDDNGDEGQEEEQE,not soluble
8,MDQKGILRFHEELASLVLKMRSKGIDDVRFFTALEKIPRQQFVSSPWFKSAYDNKVIPIECGEYIERLEEQLLILYALSLKKKHRVLEIGTGSGFCTAFMACLSDRVITVDRYKTLVDLARQKFQTLGIENIVVRQIDGSRIITGFGSFDRILIWPSRSDEPKEFLELLTENGILIQAIGPDEGVQTITRYTKIASRFECLEMFQVRYQPFIEGIAETL,not soluble
9,MDQKQLQALVEQISIRVFGKPFRHTAFFNPRLRTTGGRYMLQTHNIELNKKHYEQFGEEELIAIIKHELCHYHLHLEGKGYRHRDRDFRELLQKVGAPRYCRPLARNTKAPKTIYTYICTSCGLTYRRKRRINIDRYVCGRCRSKLKRS,not soluble
10,MDRFHATSADCCISYTPRSIPCSLLESYFETNSECSKPGVIFLTKKGRRFCANPSDKQVQVCMRMLKLDTRIKTRKN,soluble
11,MDRLDRKILRILQEDSTLAVADLAKKVGLSTTPCWRRIQKMEEDGVIRRRVALLDPVKVNTKVTVFVSIRTASHSIEWLKRFSEVVSEFPEVVEFYRMSGDVDYLLRVVVPDIAAYDAFYKRMIAKIEIRDVSSAFAMEQIKYTTELPLDYMLLDNPKSGEE,soluble
12,MDRLESVLKEERVFYPSEEFRKQAHIKSEEEYQRLYEESVRDPEGFWGRVASELHWFEPWRKVLEGDLPHPKWFVGGKTNLSYNALDRHVKTWRRNKAAIVWEGEPGEERVLTYHDLWREVQRFANVLKRLGVKKGDRVTIYLPMIPEAAIAMLACTRIGAVHSVVFGGFSAGALADRIKDAEAKVLITADGGFRRGGIVPLKQNADEALKDATSVEHVVVVRRTGEEVPWTPGRDHWWHELMEAAPDRCDPEPMEAEEPLFILYTSGSTGKPKGVLHTTGGYMTYVYYTTKLVFDLKDEDVYWCTADVGWITGHSYVVYGPLLNGATTVMYEGAPNWPEPDRFWRIVDKYGVTVFYTAPTAIRSFMKWGEGWPGKHRLDSLRLLGTVGEPINPEAWLWYYHVIGKGRCPIVDTWWQTETGGIMITTLPGAHAMKPGHAGKPFFGVVPEILDGEHRPVENPDEGGHLCITRPWPSMLRTVWGDPERFLQQYFSQHPGVYFSGDGAKRDKDGYYMILGRVDDVLNVAGHRLGTMEIESALVAHPAVAEAAVVGRPDPVKGEAIVAFVTLKEGHTPSDALKEELRAHVAKVIGPIARPDEIRFTDALPKTRSGKIMRRLLRQIAAGEKEIKGDTSTLEDRSVVERLKEGA,soluble
13,MDSDRLSSVEQFPDRGNNHVEEGSAIDYQRVPPLSGTHYASTVSAGFYEATPLLGSLVHTLEHGAVIVYYDPDEISPEARQSLREFSSVHTGTWRSVVAVPNPNDDPRATYVVTAWQHELTIDSYDAETVHAFLSEYLGRGPENPVRLEHHHHHH,not soluble
